Test: soluble on expression in E. coli; label from the status in PepcDB or PDB records

Sequence | soluble on expression in E. coli
EEATSKGQNLNVEKINGEWFSILLASDKREKIEEHGSMRVFVEHIHVLENSLAFKFHTVIDGECSEIFLVADKTEKAGEYSVMYDGFNTFTILKTDYDNYIMFHLINEKDGKTFQLMELYGRKADLNSDIKEKFVKLCEEHGIIKENIIDLTKTNRCLKARE | soluble
MSELTKAQQYNFNKLQKKIRRNTGNAIADYNMIEDGDRIMVCLSGGKDSFTMLDILMSLKKSAPISFDLIAVNLDQKQPGFPAHILPEYLEKLGVEYKIVEEDTYSIVQDKIPEGKTTCSLCSRLRRGILYRTAKELGATKIALGHHRDDILETMFLNMFYGGKLKGMPPKLVSDNGEHVVIRPLAYCREKDIIKYADMRDYPIIPCNLCGSQPNMQRQNVKQMLNTWDKQFPGRIETMFTAMQNVVPSHLADFNTFDFKSINRDSGVINGGDIGFDKEEMPTLPVDADDAVAEFDPSLKLDVVNVD | not soluble
TEQPCVEKAPAYQRFHALAQPGLPGLVLPYKYQVLVEMFRSMDTIVSMLHNRSETVTFAKVKQGVQEMMRKRFEERNVGQIKTVYPTSYRFRQECNVPTFKDSIKRSDYQLTIEPLLGQEAGGATQLTATCLLQRRQVFRQNLVERVKEQHKVFLASLNPPMAVPDDQLTRWHPRFNVDEVPDIEPAELPQPPVTEK | soluble
MMKQNPILITGGTGTVGSRIASRLIKLGYRVRIASRKKGALADAEYVYFNWKYASSFTPALEQVKQIYLVAPVGVFDPAPYVLPFLKEAKRLGAKRVVMQSASVVSENGPVFGALHQAVREFPEWTVLRPSYFMQNFINVQHRMSIQTEGRITTASGEGKLGFIDADDIAETAVRALIDDVPHQTHHILTGPEALSYAEAAEIIGAAAGRRVEHVSISRSELQHKMEAGGLPADYAHFMAKLDEAISHGAEHRVTDTVKRVTGKEPRSLSEFAAAHAAYWTSFWTELEHHHHHH | not soluble
MFYTTDTNQHGLPHDPFKAIVAPRPIGWIGSKGREGVLNLSPYSFFNAISDRPKLVMFSSSGRKDSLRNVEETGVFTANLVSRHLVDRMNASSAPVAYDVDEFALAGLTAVDGRVVDAPFVREALAVLECRATQIQQLTDIEGKPTDSWMVIGQVMAIHIGETIIRDGRIDMGLARPVARMGYMDYCDGGSDVFQLQRPSAAPSV | soluble
KTVTPEEKKLVAEKHVDELVQKALVALEEMRKLDQEQVDYIVAKASVAALDAHGELALHAFEETGRGVFEDKATKNLFACEHVVNNMRHTKTVGVIEEDDVTGLTLIAEPVGVVCGITPTTNPTSTAIFKSLISLKTRNPIVFAFHPSAQESSAHAARIVRDAAIAAGAPENCVQWITQPSMEATSALMNHEGVATILATGGNAMVKAAYSCGKPALGVGAGNVPAYVEKSANIRQAAHDIVMSKSFDNGMVCASE | not soluble
MGHHHHHHSHPSSPDSLHYLSPTGVNEYLMALWSVGSVVQDYDSDKLFPAFGFGAQVPPDWQVSHEFALNFNPSNPYCAGIQGIVDAYRQALPQVRLYGPTNFAPIINHVARFAAQAAHQGTASQYFMLLLLTDGAVTDVEATREAVVRASNLPMSVIIVGVGGADFEAMEQLDADGGPLHTRSGQAAARDIVQFVPYRRFQNAPREALAQTVLAEVPTQLVSYFRAQGWAPLKPLPP | not soluble
MGSDKIHHHHHHMRRKIPSSTTLMAFEVAARHGSFARAAEELSLTEGAISRQIGRLEAFLGVTLFERVGNRVRLLPNGERYAAQVRESLDRLDRDSQYLMGQPSDGASLDIATIPTFAMRWLIPRLSRFQQKHPNITVHLAERMDPFVLAGSGFDAAIHFEHPAWTGMRTHQLLHEVLVPVCHPELLTGRKRKTALDELPRLHRRQNPEAWLQYSQETGTPLTNPAIGARYDLHGMLIEAALAGLGVALVPRLYVETELALGNLVAPWPEGKTISKTFCLILPEPIGLSREPIQAFAQWLLDEAKKGNSG | not soluble
MFLVDSHCHLDGLDYQSLHKDVDDVLAKAAARDVKFCLAVATTLPGYRHMRKLVGKRDNVVFSCGVHPLNQDEAYDVEELRLLAAEDDVVAMGETGLDYFYTPETKIRQQASFIHHIQIGRELHKPVIVHTRDARADTLAILREEKVTDCGGVLHCFTEDRETAGKLLDLGFYISFSGIVTFRNAEQLRDAARYVPLDRLLVETDSPYLAPVPHRGKENQPAMVRDVAEYMAVLKGVAVEELAQITTDNFARLFHIDASRLSSIR | not soluble
MSLIIRTDTSPHRAAAKLSPNELTLTGARLVLPDEVYDGTVHIIDGYIDDIAAGRSTVPGAIDLEGGYVTPGLIDLHTDNSEKHALPRAGVVWNHLSAVMAHDALVIAAGITTVFDSLCIGSTTRDHTRQADRARILPVLIDGIREARAHGLLRADHFLHLRCEVTDEEVMSVFTPLVGDPLVKLVSVMDHAPGHRQSPQLDRFREMQIKQYGWSAEDADRRIEAWIDASRTIGPQNRSRIIALARARQLPLASHDDQTPEHVREANDAGVLISEFPTTRAAAEIARSLGICILMGAPNIVRGSSHSGNISARELATTGHLDILASDYVPASLLHGAFQLTRDPIGMSLTKAISTVSSVPASVTGFCDRGMIGIGGRADLCHIVEIADIPVVRGVWRQGRQVFEGHHHHHH | not soluble
MDPEALNLEFYDKNGLDNPIHFRCDPKRIGMTLPSPDFSVDDVLELVGGNRMIEVVQVQNQGSVKMSLQEFINFYKTPQEKREVLYNVLSLEFSQTPLEDLVKSPELVRQIDWVGNQWPDALRQRWISFNGRDKKFYNPHHTFPKVQNYCLMSVANCYTDFHIDFSGTSVWYHVLKGRKVFWLIPPTETNFFIYQEFIKTVNDNAFFGKSVEKCHVAILEPGDTMLIPSGWIHAVYTPDDSLVFGGNFLHSQSCKTQLRVYQVENKLNITRKFRLPYNEELIFYVIADYVKQWTGREYVRPLRIEDAKYDYVGDKWKTAGGHHKKIEYSDYETGVELTNDMIKGDEESTKDEVKVIAMHAENSLFGYPMVSKATFSADTGLEEEADEDEVKYQETKEEMDARRDAEIDELANSNSLIFYKNRTHDFVRNKCVPDHKLPIGHEPPIYFNDDEISRISPRLLDELETLGTYIRRKARVEVAEGICQPASLINTFQTVLKKRRSELTGKKFEFNQIMPRRYTRSTMETGEYDFQPTQEVPQESARRSTRFKVDNFPDELLESEVTDKPIILPQQPSSGPLEYLPAPKDEIKEDINGFEEEFEEEYEGIGQRDDQEEEEYDAEEPEDQEEEEEDEYQAEEYTPTPVTRRSSSRRSGAKNDESEEVSVKKDKKEKMEKVEKDEKRRNSKSKKDKISKEKKKKERERIELESQLDAELRAAHGGGSSKSKKKKPEKPAFVGGLPTSSIQIDPVVSNPYNYDPRMEMMKLGTGQLKSAYRKTKNNVELHIEKNLYKIEPKRGSEEGSQSREQSMEPEHSTPVFTTFDDINEANNDHYDGQKPPTKRAKYEAISVDTYETPSSSRNKEHKEYRPSPNAAPTPSPSHHQKPKLSSPAMVSSTNEYQLRKHMSSERRSSDAGSAMKKGVYMPAMSRQDKMIAEGASAPSSRHSSISSERRPSFIPDFNSSRNSSIDTPYTPTTVTPSRSSWLPNTSSINRHSIEDDSPIDVVNDSLSPINIASSPTYPTAITPPPVTLSDLKKDMSNGRKSHSQHHDDGHKHKIPSKEAIAELKLLVGKLKAINDS | not soluble
GSPELGFSISGGVGGRGNPFRPDDDGIFVTRVQPEGPASKLLQPGDKIIQANGYSFINIEHGQAVSLLKTFQNTVELIIVREVGNGAKQEIRVRVEKDGGSGGVSSVPTNLEVVAATPTSLLISWDAYRELPVSYYRITYGETGGNSPVQEFTVPGSKSTATISGLKPGVDYTITVYAHYNYHYYSSPISINYRT | soluble
MIRLSEQSPLGTGRHRKCYAHPEDAQRCIKIVYHRGDGGDKEIRRELKYYAHLGRRLKDWSGIPRYHGTVETDCGTGYVYDVIADFDGKPSITLTEFAEQCRYEEDIAQLRQLLKQLKRYLQDNRIVTMSLKPQNILCHRISESEVIPVVCDNIGESTLIPLATWSKWCCLRKQERLWKRFIAQPALAIALQKDLQPRESKTLALTSREALEHHHHHH | not soluble
